Assay: label from the status in PepcDB records

| Sequence | protein production |
| --- | --- |
| MSLNKKVFIIDKQTVYQEIDNFSASDAWRCAFIGKNWPQEKKEKIADLLFKREFDEKGNPIGMALTNWRVNIGAGSYENREAKEVDNSWNRTECFLSPDGKYDFTKQAGQQWFMKAARERGMNNFLFFTNSAPYFMTRSASTVSTDQDCINLQNDKFDDFARFLVKSAQHFREQGFHVNYISPNNEPNGQWHANSFQEGSFATKADLYRMVEELDKAISEAQIDTKILIPEVGDMKYLFEIDSIAKTPDDIIHSMFYKDGQYSVLKFKNLFNCVAAHDYWSAYPATLLVDIRNRIHKELSANGHNTKFWASEYCILEKNEEITMPASPERSINLGLYVARIIHNDLTLANASAWQWWTAVSLGEDVPIQLLPLEGSNGLSLQYDGEISTTKMLWTTANYSFFVRPGMKRIAIKPTYKISDLEAATSLMISSYTDGKEVVTVAINYSKENQVISLNCDHAQKGKVYLTTIDKNLRYMGEQPLKKLQLPARSVATIVVEDNEGHHHHHH | not failed |
| SNQEKLQRTMIHFNNPEVQAFLAVNTFTITGHGETKQLTEMLRSVLNQLAAVSLTSLRRLAEALPKQSVDGKAPLATGEDDDDDEVPGIMENFDEASKNEAN | failed |
| MTFASPDDVIRRFDEQNYLLDTGTASAIYLAVTLGRPLLLEGEPGVGKTTAAKTLAVVLDTTLIRLQCYEGLTANEALYDWNYQRQLLSIRLAEARGKGISDISEADLYTEAYLVDRPILRCVRHRGPTPPVLLIDEIDRADDEFEALLLEFLGESAVTVPELGTFLAECPPIAVLTSNRSRDLHDALRRRCLYHWIDYPEPDRAAAIVRRTVPGATAPLIENATQFVCTARDLDLDKPPGVAETIDWVAALVALGVADLTAADSSPALASLGALAKTPDDRTQIRDAYQAFTECSHA | failed |
| MGKKIITISREYGSGGRQVGLTVAKKLGMEFYDKELIDAAAKEIGFPTEMIADREQRLTNSLLYNFAMGTLYGIAYPREPKVSELPLTEQIYQAQKKAIEEAAKRGSCIFVGRCADYILKSRPDVLRVFIYADRDIRKRRAIEEYGEIEEYIDEFMYQTDKRRRIHYENYTNQKWGSRENYDLMLNSGDLGLDKCVELLCEAVK | not failed |
| MSLRVYVTGNITVDETWSIPDIPKKGASIHGVKVSQDIGGKGANQAIILSRCGIETRLIAATGNDSNGAWIRQQIKNEPLMLLPDGHFNQHSDTSIILNSADGDNAIITTTAAADTFSLDEMIPHMADAVAGDILLQQGNFSLDKTRALFQYARSRGMTTVFNPSPVNPDFCHLWPLIDIAVVNESEAELLQPYGVKTLVITQGAAGAWLVQEGQRQFCPAVPAEALDTTGAGDTFLAVMLASALLRGVAPDALALAHASRAAAITVSRRGTLSAFPGSRELAALLTTDGAEGHHHHHH | not failed |
| MANVKLLLPYILKWEGGFVHDPADAGGATNKGVTIATWKRVGYDKDGDGDIDVEDLKLLTDDDVLNRVLKPFYWDRWKADLIESQKVANILVDWVWGSGKYGIVIPQRILGVQADGIVGNKTLQAVNSADPDELFESIFDARREFLEDITARSIKKYEDSIGRKATERELLRHTNKRFLRGWLNRLEDIRKL | not failed |
| MLEHFRAGWAKVMNPIADALLRAHVTPDVVTWIGTIGAVLMALICFPQGWLWQGPWLVTLFIFSDSLDGNMARKLGRHSQWGSFLDSTLDRFGDAAIFTGVALYFAGPGNSVLWTAMACAALVFGMATSYVRAKAESLALEAKVGIATRADRLLVSLVAIEITGLARVGAFPHWCVVALPIALCYLTLAGAITVVQRMVAVRRACES | failed |
| MPYTVRFTTTARRDLHKLPPRILAAVVEFAFGDLSREPLRVGKPLRRELAGTFSARRGTYRLLYRIDDEHTTVVILRVDHRADIYRR | not failed |
| DELFNWFYIRSEINSKMSFYIATESDALVSILGFYACDFLIDSRIVPGLWTAMWFTLPQYRNGIGALLMKELVDTNSCSMWPRRIKHEFTNS | failed |
| MKLVFKWHDAPLSFMEGVFARGDRRLGAALRRAWELGCRFDGWGDRFDEAAWRTAFEETGIDPAFYHRRREPDEVLPWGHLDFGVTREFLLRELELSRQGAATEDLEHHHHHH | failed |
| MRTNKDRLVRISVVGEIAPAKMRSPYSVTTEGTVRVIPVLGGITYNVKVGDSAYGWAGDHVEPGVSVMARRKEEEIPLMTLSCIGNEVIVMSGDAKGSRGFVTGKHGGVNHVLVHFEEEVLGKLMVGDKILIKAWGQGLKLLDHPDVKVMNIDPDLFEKLGIQEKNGKIHVPVVAKIPAHMMGSGIGASSSASTDYDIMASNPEDLGVADLKLGDIVAIQDHDNSYGVGKYRKGAVSIGVVVHSACVSAGHGPGVVVIMTGDESKILPEEVERANISDYLVR | not failed |

— a protein production outcome set (Wang et al. 2014)
